# Results reported in IntAct's records for PubMed 20404169.
# B1: Protein kinase C and casein kinase substrate in neurons protein 1 (Mus musculus), Q61644 (parent)
# chain: MSGSYDEASEEITDSFWEVGNYKRTVKRIDDGHRLCNDLMSCVQERAKIEKAYAQQLTDWAKRWRQLIEKGPQYGSLERAWGAMMTEADKVSELHQEVKNSLLNEDLEKVKNWQKDAYHKQIMGGFKETKEAEDGFRKAQKPWAKKMKELEAAKKAYHLACKEERLAMTREMNSKTEQSVTPEQQKKLVDKVDKCRQDVQKTQEKYEKVLEDVGKTTPQYMEGMEQVFEQCQQFEEKRLVFLKEVLLDIKRHLNLAENSSYMHVYRELEQAIRGADAQEDLRWFRSTSGPGMPMNWPQFEEWNPDLPHTTAKKEKQPKKAEGATLSNATGAVESTSQAGDRGSVSSYDRGQTYATEWSDDESGNPFGGNEANGGANPFEDDAKGVRVRALYDYDGQEQDELSFKAGDELTKLGEEDEQGWCRGRLDSGQLGLYPANYVEAI
# partner: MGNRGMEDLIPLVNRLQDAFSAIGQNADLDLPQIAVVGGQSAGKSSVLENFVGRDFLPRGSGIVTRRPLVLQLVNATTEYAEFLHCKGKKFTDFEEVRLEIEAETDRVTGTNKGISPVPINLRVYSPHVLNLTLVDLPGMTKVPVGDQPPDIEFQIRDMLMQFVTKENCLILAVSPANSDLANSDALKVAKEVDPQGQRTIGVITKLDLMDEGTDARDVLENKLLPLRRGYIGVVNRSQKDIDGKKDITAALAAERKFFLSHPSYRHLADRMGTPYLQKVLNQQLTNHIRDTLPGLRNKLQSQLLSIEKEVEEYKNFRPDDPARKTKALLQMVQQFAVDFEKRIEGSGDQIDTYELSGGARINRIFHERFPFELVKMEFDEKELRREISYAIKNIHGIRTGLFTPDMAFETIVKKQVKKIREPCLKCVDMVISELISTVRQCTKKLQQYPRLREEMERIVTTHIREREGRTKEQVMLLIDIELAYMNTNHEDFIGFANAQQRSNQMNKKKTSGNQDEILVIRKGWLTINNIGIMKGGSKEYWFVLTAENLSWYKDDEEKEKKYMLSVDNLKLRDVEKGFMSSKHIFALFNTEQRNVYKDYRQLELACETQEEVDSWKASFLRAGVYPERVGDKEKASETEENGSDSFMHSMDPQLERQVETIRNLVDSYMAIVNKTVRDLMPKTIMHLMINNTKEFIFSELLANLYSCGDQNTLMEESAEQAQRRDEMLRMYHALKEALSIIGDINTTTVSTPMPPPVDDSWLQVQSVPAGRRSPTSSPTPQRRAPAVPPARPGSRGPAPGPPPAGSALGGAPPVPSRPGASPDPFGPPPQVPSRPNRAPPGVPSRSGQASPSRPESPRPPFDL
# Variants of: B1
# Conditions: with dyn1_human DNM1, Q05193
row,effect of a mutation on the interaction,Variant
1,decreasing interaction strength,D394R;E400R
2,decreasing interaction,E400R
3,decreasing interaction,P434L
